2 molecules from paper PMC3268058 (2010) can be followed below.

This experiment addresses SRC SH3 domain (GST-SH3(SRC)) 83-139 (Gallus gallus, UniProt P00523). The experiment can be described thus: fluorescence polarization competition.

Molecule VSLARRPLPPLPRL [AGT(PP2) fusion] displayed a Kd of 0.55 µM.

As for RAARPLPPLPP [AGT(PP3) fusion], the Kd stood at 7 µM.
